The source of these data is publication doi:10.1101/2023.08.30.554051.

This assay deals with human skeletal myosin IIa subfragment-1 (S1), oligonucleotide-labeled, on DNA origami-based thick filament (human). Nature of the assay: high-speed atomic force microscopy.

Consider “actin filament (from UniProt P68135 1-377) (natural protein)”, for which the duty ratio is 0.87, the mean detachment time amounted to 0.17 s, the time constant of the attachment time is 1.1 s and the time constant of the detachment time (fast) came out at 0.063 s. This substance also gave a time constant of the detachment time (slow) of 0.68 s.
